Results reported in patent publication CN117683122A (SHENZHEN BAY LABORATORY; UNIV TSINGHUA, dated 2024).
Numbering of substitutions follows the chain as printed.

B1: 抗体B019 (antibody, V domains shown)
VH: QVQLLESGGTLVQPGGSLRLSCAASGFSFRTHDMNWVRQAPGKGLEWVSHISSTGSTIYYADSVKGRFTISRDNAKNSLYLQMNSLRADDTAVYYCARDRFTIFGVGPPFYYMDVWGQGTLVTVSS
VL: DIQLTQSPSSLSASVGDRVTITCRASQGISSYLAWYQQKPGKAPKLLIYAASTLQSGVPSRFSGSGSGTDFTLTISSLQPEDFATYYCQQSYSTPRTFGQGTKVEIKR
B2: 抗体B026 (antibody, V domains shown)
VH: EVQLLESGGGVVQPGNSLRLSCAASGFTFSSYNMNWVRQAPGKGLEWVSSISSRSSYIYYADSVKGRFTISRDNAKNTLYLQMSSLRSEDTAVYFCVRRNGAFDIWGQGTMVTVSS
VL: B1 VL with L4M, G28S, S30T, S31T, A34N, T53S, S93G, T94I
B3: 抗体B089 (antibody, V domains shown)
VH: EVQLLESGGGVVQPGRSLRLSCAASGFTFSSYAMHWVRQAPGKGLEWVAVISYDGSNKYYADSVKGRFTISRDNSKNTLYLQMNSLRAEDTAVYYCARFSGAYSYGYGVYWGQGTPVTVSS
VL: DIQLTQSPSFLSASVGDNVTITCRASQGIASRLAWYQQKPGKAPNLLISSSSTLQSGVPSRFTGSGYGTEFTLTMNTLQPEDSATYYCQQLNSYPLTFGGGTKVEIKR
B4: 抗体B010 (antibody, V domains shown)
VH: QVQLLDSGGGLVQPGGSLRLSCAASGFTFSSYAMHWVRQAPGKGLEWVAVISYDGSNKYYADSVKGRFTISRDNSKNTLYLQMNSLRAEDTAVYYCAQGWFDYWGQGTTVTVSS
VL: NIQMTQSPSTLSASVGDRVTITCRASQSIGPWLAWYQQKPGKAPKLLIYKASSLESGVPSRFSGSGSGTEFTLTISSLQPEDFATYHCQQYKSYPYSFGQGTKVDIKR
B5: 抗体B083 (antibody, V domains shown)
VH: EVQLLESGGGVVRPGGSLRLSCAASGFTFGDYGMSWVRQAPGKGLEWVSGINWNGGSTGYADSVKGRFTISRDNAKNSLYLQMNSLRVEDSGVYYCARYGRVPDNWGQGTMVTVSS
VL: NIQLTQSPSSLSASVGDRVTITCRASQGVNNWLAWYQQKPGKAPKLLIYAASTLESGVPSRFSGSGSATDFTLTINGLQPEDFATYYCQQAKRFPWTFGQGTKVEIKR
B6: 抗体B161 (antibody, V domains shown)
VH: QVQLLESGGGLVKPGGSLRLSCAASGFTFSSYSMSWVRQAPGKGLEWVSSISGGSDYIYYADPVRGRFTISRDNAKNSVYLQMNSLRAEDTAVYYCGRGITGIFNWGQGTPVTVSS
VL: DIQLTQSPSSLSASVGDRVTITCRASQSINNYLNWYQQKPGKAPKVLIYAASSLPRGVPSRFSGSGSGTDFTLTISSLQPEDFASYYCQQSYTSPLTFGQGTKVEVKR

These binders were tested against 重组猴痘病毒表面蛋白B6R-His (monkeypox virus, UniProt P0DTN2 20-279).
B1 was tested, and the Kd was < 1 nM.
With B2 the Kd was < 1 nM.
With B3 the Kd was < 1 nM.
In the case of B4, the Kd is reported as < 1 nM.
B5 was tested, and the Kd was < 1 nM.
With B6 the Kd was < 1 nM.
